Measured values: US10676749

Legend:
Assay in all cases: cell_activity
[1] = test system: TALE-VP64 VEGF5-3 (synthetic); conditions: VEGF-A ELISA, 293 cells
[2] = test system: TALE-VP64 VEGF4-5 (synthetic); conditions: VEGF-A ELISA, 293 cells
[3] = test system: TALE-VP64 VEGF8-3 (synthetic); conditions: VEGF-A ELISA, 293 cells
[4] = test system: TALE-VP64 VEGF5-5 (synthetic); conditions: VEGF-A ELISA, 293 cells
[5] = test system: TALE-VP64 VEGF4-3 (synthetic); conditions: VEGF-A ELISA, 293 cells
[6] = test system: TALE-VP64 VEGF1-3 (synthetic); conditions: VEGF-A ELISA, 293 cells
[7] = test system: TALE-VP64 Ntf3-4 (synthetic); conditions: NTF3 qRT-PCR, 293 cells
[8] = test system: TALE-VP64 VEGF8-5 (synthetic); conditions: VEGF-A ELISA, 293 cells
[9] = test system: TALE-VP64 VEGF6-6 (synthetic); conditions: VEGF-A ELISA, 293 cells
[10] = test system: TALE-VP64 VEGF4-6 (synthetic); conditions: VEGF-A ELISA, 293 cells
[11] = test system: TALE-VP64 VEGF4-2 (synthetic); conditions: VEGF-A ELISA, 293 cells
[12] = test system: TALE-VP64 VEGF8-1 (synthetic); conditions: VEGF-A ELISA, 293 cells
[13] = test system: TALE-VP64 VEGF6-1 (synthetic); conditions: VEGF-A ELISA, 293 cells
[14] = test system: TALE-VP64 VEGF8-4 (synthetic); conditions: VEGF-A ELISA, 293 cells
[15] = test system: TALE-VP64 VEGF3-2 (synthetic); conditions: VEGF-A ELISA, 293 cells
[16] = test system: TALE-VP64 Ntf3-3 (synthetic); conditions: NTF3 qRT-PCR, 293 cells
[17] = test system: TALE-VP64 Ntf3-2 (synthetic); conditions: NTF3 qRT-PCR, 293 cells
[18] = test system: TALE-VP64 VEGF3-1 (synthetic); conditions: VEGF-A ELISA, 293 cells
[19] = test system: TALE-VP64 Ntf3-1 (synthetic); conditions: NTF3 qRT-PCR, 293 cells; weakest about 1000-fold
[20] = test system: TALE-VP64 VEGF9-1 (synthetic); conditions: VEGF-A ELISA, 293 cells
[21] = test system: TALE-VP64 VEGF1-6 (synthetic); conditions: VEGF-A ELISA, 293 cells
[22] = test system: TALE-VP64 VEGF9-5 (synthetic); conditions: VEGF-A ELISA, 293 cells
[23] = test system: TALE-VP64 VEGF7-6 (synthetic); conditions: VEGF-A ELISA, 293 cells
[24] = test system: TALE-VP64 VEGF6-3 (synthetic); conditions: VEGF-A ELISA, 293 cells
[25] = test system: TALE-VP64 VEGF1-5 (synthetic); conditions: VEGF-A ELISA, 293 cells
[26] = test system: TALE-VP64 VEGF9-4 (synthetic); conditions: VEGF-A ELISA, 293 cells
[27] = test system: TALE-VP64 VEGF3-5 (synthetic); conditions: VEGF-A ELISA, 293 cells
[28] = test system: TALE-VP64 VEGF1-2 (synthetic); conditions: VEGF-A ELISA, 293 cells
[29] = test system: TALE-VP64 VEGF3-4 (synthetic); conditions: VEGF-A ELISA, 293 cells
[30] = test system: TALE-VP64 VEGF4-1 (synthetic); conditions: VEGF-A ELISA, 293 cells
[31] = test system: TALE-VP64 VEGF1-1 (synthetic); conditions: VEGF-A ELISA, 293 cells; range 5.3-114 over 53 active TALEs
[32] = test system: TALE-VP64 VEGF9-2 (synthetic); conditions: VEGF-A ELISA, 293 cells
[33] = test system: TALE-VP64 VEGF5-6 (synthetic); conditions: VEGF-A ELISA, 293 cells
[34] = test system: TALE-VP64 VEGF6-2 (synthetic); conditions: VEGF-A ELISA, 293 cells
[35] = test system: TALE-VP64 VEGF6-5 (synthetic); conditions: VEGF-A ELISA, 293 cells
[36] = test system: TALE-VP64 VEGF2-5 (synthetic); conditions: VEGF-A ELISA, 293 cells
[37] = test system: TALE-VP64 VEGF8-2 (synthetic); conditions: VEGF-A ELISA, 293 cells
[38] = test system: TALE-VP64 Ntf3-5 (synthetic); conditions: NTF3 qRT-PCR, 293 cells
[39] = test system: TALE-VP64 VEGF7-5 (synthetic); conditions: VEGF-A ELISA, 293 cells
[40] = test system: TALE-VP64 VEGF3-6 (synthetic); conditions: VEGF-A ELISA, 293 cells
[41] = test system: TALE-VP64 VEGF1-4 (synthetic); conditions: VEGF-A ELISA, 293 cells; site printed with S at position 6
[42] = test system: TALE-VP64 VEGF9-3 (synthetic); conditions: VEGF-A ELISA, 293 cells
[43] = test system: TALE-VP64 VEGF3-3 (synthetic); conditions: VEGF-A ELISA, 293 cells
[44] = test system: TALE-VP64 VEGF6-4 (synthetic); conditions: VEGF-A ELISA, 293 cells
[45] = test system: TALE-VP64 VEGF4-4 (synthetic); conditions: VEGF-A ELISA, 293 cells
[46] = test system: TALE-VP64 VEGF5-2 (synthetic); conditions: VEGF-A ELISA, 293 cells
[47] = test system: TALE-VP64 VEGF5-4 (synthetic); conditions: VEGF-A ELISA, 293 cells
[48] = test system: TALE-VP64 VEGF8-6 (synthetic); conditions: VEGF-A ELISA, 293 cells
[49] = test system: TALE-VP64 VEGF9-6 (synthetic); conditions: VEGF-A ELISA, 293 cells
[50] = test system: TALE-VP64 VEGF5-1 (synthetic); conditions: VEGF-A ELISA, 293 cells
[51] = test system: TALE-VP64 VEGF7-2 (synthetic); conditions: VEGF-A ELISA, 293 cells
[52] = test system: TALE-VP64 VEGF2-6 (synthetic); conditions: VEGF-A ELISA, 293 cells
[53] = test system: TALE-VP64 VEGF7-4 (synthetic); conditions: VEGF-A ELISA, 293 cells
[54] = test system: TALE-VP64 VEGF7-3 (synthetic); conditions: VEGF-A ELISA, 293 cells

TGGACGCGGCGGCGAGCCGC (double strand) [VEGF5-3 site]
activity (fold activation) [1]: > 5.3

TCCCCGGCCGGCGGCGGACAGTGG (double strand) [VEGF4-5 site]
activity (fold activation) [2]: > 5.3

TCCACTGTCCGCCGCCGGCC (double strand) [VEGF8-3 site]
activity (fold activation) [3]: > 5.3

TGGACGCGGCGGCGAGCCGCGGGC (double strand) [VEGF5-5 site]
activity (fold activation) [4]: > 5.3

TCCCCGGCCGGCGGCGGACA (double strand) [VEGF4-3 site]
activity (fold activation) [5]: > 5.3

TTGGGGGTGACCGCCGGAGC (double strand) [VEGF1-3 site]
activity (fold activation) [6]: > 5.3

TACGCCTCAGACCTGATC (double strand) [Ntf3-4 site]
activity (fold activation (approx)) [7]: > 1000

TCCACTGTCCGCCGCCGGCCGGGG (double strand) [VEGF8-5 site]
activity (fold activation) [8]: > 5.3

TCCCAAGGGGGAGGGCTCACGCCGCG (double strand) [VEGF6-6 site]
activity (fold activation) [9]: > 5.3

TCCCCGGCCGGCGGCGGACAGTGGAC (double strand) [VEGF4-6 site]
activity (fold activation) [10]: > 5.3

TCCCCGGCCGGCGGCGGA (double strand) [VEGF4-2 site]
activity (fold activation) [11]: > 5.3

TCCACTGTCCGCCGCC (double strand) [VEGF8-1 site]
activity (fold activation) [12]: > 5.3

TCCCAAGGGGGAGGGC (double strand) [VEGF6-1 site]
activity (fold activation) [13]: > 5.3

TCCACTGTCCGCCGCCGGCCGG (double strand) [VEGF8-4 site]
activity (fold activation) [14]: > 5.3

TACCACCTCCTCCCCGGC (double strand) [VEGF3-2 site]
activity (fold activation) [15]: > 5.3

TTCCCCTGCTGGGTAGTG (double strand) [Ntf3-3 site]
activity (fold activation (approx)) [16]: > 1000

TCCGAACAGCTCCGCGCA (double strand) [Ntf3-2 site]
activity (fold activation (approx)) [17]: > 1000

TACCACCTCCTCCCCG (double strand) [VEGF3-1 site]
activity (fold activation) [18]: > 5.3

TTCTGTTCACGGGACTCA (double strand) [Ntf3-1 site]
activity (fold activation (approx)) [19]: > 1000

TCCACCCCGCCTCCGG (double strand) [VEGF9-1 site]
activity (fold activation) [20]: > 5.3

TTGGGGGTGACCGCCGGAGCGCGGCG (double strand) [VEGF1-6 site]
activity (fold activation) [21]: > 5.3

TCCACCCCGCCTCCGGGCGCGGGC (double strand) [VEGF9-5 site]
activity (fold activation) [22]: > 5.3

TCCGTCAGCGCGACTGGTCAGCTGCG (double strand) [VEGF7-6 site]
activity (fold activation) [23]: > 5.3

TCCCAAGGGGGAGGGCTCAC (double strand) [VEGF6-3 site]
activity (fold activation) [24]: > 5.3

TTGGGGGTGACCGCCGGAGCGCGG (double strand) [VEGF1-5 site]
activity (fold activation) [25]: > 5.3

TCCACCCCGCCTCCGGGCGCGG (double strand) [VEGF9-4 site]
activity (fold activation) [26]: > 5.3

TACCACCTCCTCCCCGGCCGGCGG (double strand) [VEGF3-5 site]
activity (fold activation) [27]: > 5.3

TTGGGGGTGACCGCCGGA (double strand) [VEGF1-2 site]
activity (fold activation) [28]: > 5.3

TACCACCTCCTCCCCGGCCGGC (double strand) [VEGF3-4 site]
activity (fold activation) [29]: > 5.3

TCCCCGGCCGGCGGCG (double strand) [VEGF4-1 site]
activity (fold activation) [30]: > 5.3

TTGGGGGTGACCGCCG (double strand) [VEGF1-1 site]
activity (fold activation) [31]: > 5.3

TCCACCCCGCCTCCGGGC (double strand) [VEGF9-2 site]
activity (fold activation) [32]: > 5.3

TGGACGCGGCGGCGAGCCGCGGGCAG (double strand) [VEGF5-6 site]
activity (fold activation) [33]: > 5.3

TCCCAAGGGGGAGGGCTC (double strand) [VEGF6-2 site]
activity (fold activation) [34]: > 5.3

TCCCAAGGGGGAGGGCTCACGCCG (double strand) [VEGF6-5 site]
activity (fold activation) [35]: > 5.3

TCCCGCAGCTGACCAGTCGCGCTG (double strand) [VEGF2-5 site]
activity (fold activation) [36]: > 5.3

TCCACTGTCCGCCGCCGG (double strand) [VEGF8-2 site]
activity (fold activation) [37]: > 5.3

TCCCTCAATCTGGGAAAG (double strand) [Ntf3-5 site]
activity (fold activation (approx)) [38]: > 1000

TCCGTCAGCGCGACTGGTCAGCTG (double strand) [VEGF7-5 site]
activity (fold activation) [39]: > 5.3

TACCACCTCCTCCCCGGCCGGCGGCG (double strand) [VEGF3-6 site]
activity (fold activation) [40]: > 5.3

TTGGGGGTGACCGCCGGAGCGC (double strand) [VEGF1-4 site]
activity (fold activation) [41]: > 5.3

TCCACCCCGCCTCCGGGCGC (double strand) [VEGF9-3 site]
activity (fold activation) [42]: > 5.3

TACCACCTCCTCCCCGGCCG (double strand) [VEGF3-3 site]
activity (fold activation) [43]: > 5.3

TCCCAAGGGGGAGGGCTCACGC (double strand) [VEGF6-4 site]
activity (fold activation) [44]: > 5.3

TCCCCGGCCGGCGGCGGACAGT (double strand) [VEGF4-4 site]
activity (fold activation) [45]: > 5.3

TGGACGCGGCGGCGAGCC (double strand) [VEGF5-2 site]
activity (fold activation) [46]: > 5.3

TGGACGCGGCGGCGAGCCGCGG (double strand) [VEGF5-4 site]
activity (fold activation) [47]: > 5.3

TCCACTGTCCGCCGCCGGCCGGGGAG (double strand) [VEGF8-6 site]
activity (fold activation) [48]: > 5.3

TCCACCCCGCCTCCGGGCGCGGGCTC (double strand) [VEGF9-6 site]
activity (fold activation) [49]: > 5.3

TGGACGCGGCGGCGAG (double strand) [VEGF5-1 site]
activity (fold activation) [50]: > 5.3

TCCGTCAGCGCGACTGGT (double strand) [VEGF7-2 site]
activity (fold activation) [51]: > 5.3

TCCCGCAGCTGACCAGTCGCGCTGAC (double strand) [VEGF2-6 site]
activity (fold activation) [52]: > 5.3

TCCGTCAGCGCGACTGGTCAGC (double strand) [VEGF7-4 site]
activity (fold activation) [53]: > 5.3

TCCGTCAGCGCGACTGGTCA (double strand) [VEGF7-3 site]
activity (fold activation) [54]: > 5.3
